# Data taken from patent publication US20030236184A1.
# Columns and labels:
# [1] = target: type-II GnRH binding site in the pituitary of adult male land-locked P. marinus (P. marinus (sea lamprey)); assay: competition with iodinated [DAla6,Pro9Net]-mammalian GnRH tracer, pituitary of adult male P. marinus; Ki from IC50
# [2] = target: type-I GnRH binding site in the pituitary of adult male land-locked P. marinus (P. marinus (sea lamprey)); assay: as above
# [3] = target: type-II GnRH binding site in the pituitary of adult male land-locked P. marinus (P. marinus (sea lamprey)); assay: self-displacement of iodinated [DAla6,Pro9Net]-mammalian GnRH tracer, pituitary of adult male P. marinus; Ki from IC50
# [4] = target: type-I GnRH binding site in the pituitary of adult male land-locked P. marinus (P. marinus (sea lamprey)); assay: as above
Substance,Ki [1] [nM],Ki [2] [nM],Ki [3] [nM],Ki [4] [nM]
"[Ac-Delta-3Pro, 4FDPhe^2-D-Trp^3,6]-lGnRH-III (peptide)",8940,7.1,–,–
"[D-Phe^2,6, Pro^3]-lGnRH-III (peptide)",52200,0.03,–,–
"[DAla^6, Pro^9Net]-mammalian GnRH (peptide)",–,–,89,0.00311

# Next, values leading:
Ki [1] [nM],Ki [2] [nM],Ki [3] [nM],Ki [4] [nM],Substance
5650,1.37,–,–,"[D-Phe^2, Gly^6]-lGnRH-I (peptide)"
655,0.00383,–,–,"[D-Phe^2, Gly^6]-lGnRH-III (peptide)"
